Assay results as given in PMC8749410.

Experiments:
[1] = target: human recombinant complement receptor 3 (integrin αMβ2, CD11b/CD18) (human) (UniProt P11215); assay: SPR; Biacore S200; HIV virions flowed over immobilised rI-domain or rCR3; blank ethanolamine reference flow cell; mean Kd ± SD from a minimum of two technical repeats on each of two flow cells
[2] = target: human recombinant I-domain of the CR3 alpha subunit CD11b (human); assay: as above
[3] = target: complement receptor 3 (CD11b/CD18) on primary human cervical epithelial (Pex) cells (human (endogenous in Pex cells)) (UniProt P11215); assay: fluorometric adherence assay on cells; virions 10 ng/mL p24 equivalent, 2 h on CHO or Pex cells; cells fixed, HIV immunolabelled (goat polyclonal LS-C103187, FITC secondary) and quantified against a standard curve of virus
[4] = target: complement receptor 3 (CD11b/CD18) on primary human cervical epithelial (Pex) cells (human (endogenous in Pex cells)) (UniProt P11215)
[5] = target: human complement receptor 3 (CD11b/CD18) on CHO-CR3 cells (human) (UniProt P11215); assay: fluorometric adherence assay on cells; virions 10 ng/mL p24 equivalent, 2 h on CHO or Pex cells; cells fixed, HIV immunolabelled (goat polyclonal LS-C103187, FITC secondary) and quantified against a standard curve of virus

Row | Substance | Kd [1] | Kd [2] | adherent virus (p24 HIV equivalent) [3] | percent of the inoculum adherent [3] | HIV-1 transcytosis across a polarized Pex cell monolayer in Transwells, no competimer; HIV p24 in the basal chamber as percent of the inoculum (10 ng/mL p24 equivalent) [4] | adherent virus (p24 HIV equivalent) [5] | percent of the inoculum adherent [5]
1 | HIV-1 strain NL4-3 AD8 virions produced in HEK293T cells (envelope glycoprotein gp120/gp41 on the virion surface) (complex) | 337 nM | 239 nM | 1.01 ng/mL | 10% | – | – | –
2 | HIV-1 strain NL4-3 virions produced in HEK293T cells (envelope glycoprotein gp120/gp41 on the virion surface) (complex) | 192 nM | 90.9 nM | – | – | – | – | –
3 | HIV-1 transmitted founder strain REJO virions produced in HEK293T cells (envelope glycoprotein gp120/gp41 on the virion surface) (complex) | 90.3 nM | 265 nM | – | – | – | – | –
4 | HIV-1 transmitted founder strain RHPA virions produced in HEK293T cells (envelope glycoprotein gp120/gp41 on the virion surface) (complex) | 249 nM | 912 nM | – | – | – | – | –
5 | HIV-1 transmitted founder strain WITO virions produced in HEK293T cells (envelope glycoprotein gp120/gp41 on the virion surface) (complex) | 242 nM | 298 nM | – | – | 4% | – | –
6 | HIV-1 transmitted founder strain WITO virions propagated in primary human PBMCs (envelope glycoprotein gp120/gp41 on the virion surface) (complex) | 10.6 nM | 7.92 nM | – | – | – | – | –
7 | HIV-1 transmitted founder strain WITO virions, producer cells not stated (envelope glycoprotein gp120/gp41 on the virion surface) (complex) | – | – | 1.35 ng/mL | 13% | – | 2.4 ng/mL | 24%
